Measurements: the supplement of paper PMC11780869

Tested on: Bacillus subtilis
Assay: cleaved RNA product abundance (RNA/gDNA barcode ratio) relative to median wild-type variant (ratio to wild type); higher = more accumulation of the downstream cleavage product
Procedure, shortened: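 Cleaved product abundance for each construct is its RNA-to-gDNA barcode ratio, scaled to the median construct carrying the unmutated site. Cleaved RNA was isolated on a gel, reverse transcribed and barcode-sequenced, with genomic DNA barcodes sequenced alongside and UMIs collapsed. The reporters were truncated aprE or tetM mRNAs with barcoded, mutagenized RNase Y cleavage-site windows integrated into the B. subtilis chromosome, and cultures grew in LB at 37°C from OD600 0.0003 to 0.3.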

[1] = experiment (reporter, strain, medium): exp 8a: truncated aprE reporter, strain BJT201 with 2% xylose (RNase J1 expressed), cleavage site: glnRA (positions -5 to +31 mutated)
[2] = experiment (reporter, strain, medium): exp 4a: truncated aprE reporter, strain BJT201 with 2% xylose (RNase J1 expressed), cleavage site: cggR-gapA (positions -7 to +36 mutated)
[3] = experiment (reporter, strain, medium): exp 2b: truncated aprE reporter, strain BJT200, cleavage site: cggR-gapA (positions -7 to +36 mutated)

Sequence | cleaved RNA product abundance [1] | cleaved RNA product abundance [2] | cleaved RNA product abundance [3]
CGACATGTCCCGCTTCTTTCATTAATCCGTTAGCAACTGTTTTGCTATATACATTTACCCTTTAAGAGGAGGAAT | 0.763 | – | –
ACAGACGAAGGAGCCGCAAAGAAGTTATTAAGCGATGAATAATCCCTCCATATAAATATCTCTCACTTATTTAAA | – | 0.0952 | –
ACAGACGAAGGAGCCGCAAAGAAGTTATTAATGGATGAATAATCCATCAATATAAATATCTCTCACTTATTTAAA | – | 1.21 | 0.667
ACAGACGAAGGAGCCGCGAAGAAGTTATTAAGAGATGAATAATCCCTCAATATAAATATCTCTCACTTATTTAAA | – | 0.108 | 0.114
ACAGACGAAGGAGCCGCAAAGAAGTGATTAAGGGATGAATACTCCCTCAATATAAATATCTCTCACTTATTTAAA | – | 0.354 | –
CGACATGTCCCGCTTCTTTCATTAATCCGTTAGAATCTGTTTTGCTATATACATTTACCTTTTAAGAGGAGGAAT | 0.239 | – | –
CGACATGTCCCGCTTCTTTCATTAATCCGGTAGCAACTGTTTTGCTAGATACATTTACCTTTTAAGAGGAGGAAT | 0.545 | – | –
ACAGACGAAGGAGCCGCAATGAACTTATTAAGGGATGAATAATCCCTCAATATAAATATCTCTCACTTATTTAAA | – | 0.405 | –
ACAGACGAAGGAGCCGCAAAGAAGTTATTAAGGGATGAATAAACCCTCAATATAAATGTCTCTCACTTATTTAAA | – | 0.39 | 0.292
ACAGACGAAGGAGCCGCAAAGAAGTTATTAACGGATGAATAATCCCTCAATATTAATATCTCTCACTTATTTAAA | – | 0.0699 | 0.0877
ACAGACGAAGGAGCCGCAAAGAAGTAATTAAGGGATAAATAATCCCTCAATATAAATATCTCTCACTTATTTAAA | – | 0.219 | 0.256
ACAGACGAAGGAGCCGCAAAGAAGTTAATAAGGGATCAATAATCCCTCAATATAAATATCTCTCACTTATTTAAA | – | 0.316 | 0.282
ACAGACGAAGGAGCCGCAAAGAAGTTATTACGGGATGAATAATCCCTCAATATAAATCTCTCTCACTTATTTAAA | – | 0.368 | –
ACAGACGAAGGAGCCGCAAAGAAGTTCTGAAGGGATGAATAATCCCTCAATATAAATATCTCTCACTTATTTAAA | – | – | 0.193
ACAGACGAAGGAGCCGCAAAGATGTTAATAAGGGATGAATAATCCCTCAATATAAATATCTCTCACTTATTTAAA | – | 0.311 | 0.237
ACAGACGAAGGAGCCGCAAAGAAATTATTAAGGGAAGAATAATCCCTCAATATAAATATCTCTCACTTATTTAAA | – | 0.599 | 0.394
ACAGACGAAGGAGCCGCACAGAAGTTATTAAGAGATGAATAATCCCTCAATATAAATTTCTCTCACTTATTTAAA | – | 0.113 | –
CGACATGTCCCGCTTCTTTCATTATTCCGTTCGCAACTGTTTTGCTATATACATTTACCTTTTAAGAGGAGGAAT | 0.283 | – | –
ACAGACGAAGGAGCCGCAAAGAAGTGATTAAGGGATGAAAAATCCCTCAATATAAATATCTCTCACTTATTTAAA | – | 0.399 | –
ACAGACGAAGGAGCCGCAAAGAAGTTATTAAGGAACGAATAATCCCTCAATATAAATATCTCTCACTTATTTAAA | – | 0.073 | 0.0842

Sequence | cleaved RNA product abundance [1] | cleaved RNA product abundance [2] | cleaved RNA product abundance [3]
CGACATGTCCCGCTTCTTTCATTAATCCGTTAGCAACTGTATTGCTATATACATTTACGTTTTAAGAGGAGGAAT | 1.16 | – | –
CGACATGTCCCGCTTCTTTCATTAATCCGTTATCAACTGTTTTGCTATATAGATTTACCTTTTAAGAGGAGGAAT | 0.418 | – | –
ACAGACGAAGGAGCCGCAAAGAAGTTATTAAGGGATGACTACTCCCTCAATATAAATATCTCTCACTTATTTAAA | – | 0.446 | –
ACAGACGAAGGAGCCGCAAAGAAGTAATTAAGGGATGAATAATCGCTCAATATAAATATCTCTCACTTATTTAAA | – | 0.0828 | –
ACAGACGAAGGAGCCGCAAAGAAGTTATTAACGGATGAATAATCCCTCTATATAAATATCTCTCACTTATTTAAA | – | 0.133 | –
CGACATGTCCCGCTTCTTTCATTATTCCGTGAGCAACTGTTTTGATATATACATTTACCTTTTAAGAGGAGGAAT | 0.52 | – | –
ACAGACGAAGGAGCCGCAAATAAGTTATTAAGGGATGAATAATCCCTCAATATAAATATATCTCACTTATTTAAA | – | 0.814 | –
CGACATGTCCCGCTTCTTTCATTAATCCGTTAGCAACTGTTTTGCTATAAACATTTACGTTTTAAGAGGAGGAAT | 1.32 | – | –
ACAGACGAAGGAGCCGCAAAGAAGTTATTAAGTGATGAAAAATCCCTCAATATAAATATCTCTCACTTATTTAAA | – | 0.0967 | 0.118
CGACATGTCCCGCTTCTTTCATTAATCCGTAAGCAACAGTTTTGCTATATACATTTACCTTTTAAGAGGAGGAAT | 0.348 | – | –
CGACATGTCCCGCTTCTTTCATTAATCCGTTAGCAACTATTTTGCTATATACATTTACCTTTTAAGAGGAGGAAT | 1.34 | – | –
ACAGACGAAGGAGCCGCAAAGAAGTTATTAAGGGATGAATAATCACTCGATATAAATATCTCTCACTTATTTAAA | – | 0.0689 | –
ACAGACGAAGGAGCCGCAAAGAAGTTATTAAGGGATGAACTATCCCTCAATATAAATATCTCTCACTTATTTAAA | – | 0.794 | –
ACAGACGAAGGAGCCGCAAAGAAGTTATAAAGGGATTAATAATCCCTCAATATAAATATCTCTCACTTATTTAAA | – | 0.362 | 0.333
ACAGACGAAGGAGCCGCAAAGAAATTATTAAGGGATGAATAATACCTCAATATAAATATCTCTCACTTATTTAAA | – | 0.153 | 0.141
CGACATGTCCCGCTTCTTTCATTAATCCGTTAACAACTGTTTTGCTATAAACATTTACCTTTTAAGAGGAGGAAT | 0.207 | – | –
CGACATGTCCCGCTTCTTTCATTAATCCGTTAGCAATTGTTTTGCTATATACATTGACTTTTTAAGAGGAGGAAT | 1.33 | – | –
CGACATGTCCCGCTTCTTTCATTAATCCGTTAGCAACTGTTTTACTATAAACATTTACCTTTTAAGAGGAGGAAT | 0.553 | – | –
ACAGACGAAGGAGCCGCGAAGAAGTTATTAAGGGATGAATAAACCCTCAATATAAATATCTCTCACTTATTTAAA | – | 0.467 | –
ACAGACGAAGGAGCCGCAAAGAAGTTAGTAAGGGATGAATAATCCCTTAATATAAATATCTCTCACTTATTTAAA | – | 0.724 | –

Sequence | cleaved RNA product abundance [1] | cleaved RNA product abundance [2] | cleaved RNA product abundance [3]
ACAGACGAAGGAGCCGCAAAGAAGTTATTAATGGATGAATAATTCATCAATATAAATATCTCTCACTTATTTAAA | – | 0.316 | –
ACAGACGAAGGAGCCGCAAAGATGTTATTAAGGGATGAATAATCCCTCAAAATAAATATCTCTCACTTATTTAAA | – | 0.502 | –
ACAGACGAAGGAGCCGCAAATAAGTTATTAAGGGATGATTAATCCCTCAATATAAATATCTCTCACTTATTTAAA | – | 0.697 | 0.783
CGACATGTCCCGCTTCTTTCATTAATCCGTTAGCAACTGTGTTGCTATATACATTTACCATTTAAGAGGAGGAAT | 0.38 | – | –
ACAGACGAAGGAGCCGCAAAAAAGCTATTAAGGGATGAATAATCCCTCAATATAAATATCTCTCACTTATTTAAA | – | 0.855 | 0.392
ACAGACGAAGGAGCCGCAAAGAACTTATTAAGGGATGAATAATCCCTGAATATAAATATCTCTCACTTATTTAAA | – | 0.213 | 0.264
ACAGACGAAGGAGCCGCAAAGAAGTTATTAAGGAATGACTAATCCCTCAATATAAATATCTCTCACTTATTTAAA | – | 0.103 | –
ACAGACGAAGGAGCCGCAAAAAAGTTATTAAGGGATGAATATTCCCTCAATATAAATATCTCTCACTTATTTAAA | – | 0.566 | 0.665
CGACATGTCCCGCTTCTTTCATTAATCCGTTAGCAACTGATTTGCTATATACATATACCTTTTAAGAGGAGGAAT | 1 | – | –
ACAGACGAAGGAGCCGCTAAGAAGTTATTAAGGGATGAATAATCCCTCAATGTAAATATCTCTCACTTATTTAAA | – | 0.0932 | –
CGACATGTCCCGCTTCTTTCATTAATCCGTTTTCAACTGTTTTGCTATATACATTTACCTTTTAAGAGGAGGAAT | 0.247 | – | –
ACAGACGAAGGAGCCGCAAAGAAGTTATTAAGGGATTAATAATCGCTCAATATAAATATCTCTCACTTATTTAAA | – | 0.0904 | 0.109
CGACATGTCCCGCTTCTTTCATTAATACGTAAGCAACTGTTTTGCTATATACATTTACCTTTTAAGAGGAGGAAT | 0.225 | – | –
ACAGACGAAGGAGCCGCAAAGACGTTATTAAGAGATGAATAATCCCTCAATATAAATATCTCTCACTTATTTAAA | – | 0.116 | 0.101
CGACATGTCCCGCTTCTTTCATTACTCCGTTAGAAACTGTTTTGCTATATACATTTACCTTTTAAGAGGAGGAAT | 0.478 | – | –
CGACATGTCCCGCTTCTTTCATTATACCGTTAGCAACTGTTTTGCTATATACATTTACCTTTTAAGAGGAGGAAT | 2.04 | – | –
CGACATGTCCCGCTTCTTTCATTAATCCGTTATCAACTGTTTTGCTATATACATTTGCCTTTTAAGAGGAGGAAT | 0.223 | – | –
ACAGACGAAGGAGCCGCAAAGAAGTTATTAAGAGATGAATAATCCGTCAATATAAATATCTCTCACTTATTTAAA | – | 0.0917 | 0.0978
ACAGACGAAGGAGCCGCAAAGAAGTTATTAAGCGATGAATAATCCCTTAATATAAATATCTCTCACTTATTTAAA | – | 0.301 | –
CGACATGTCCCGCTTCTTTCATTAATCCGTTAGCAACAGTTTTGCTATATACATTTAACTTTTAAGAGGAGGAAT | 0.916 | – | –
